The term stoichiometry N denotes a count of units in the complex or per binding partner.

We go through one substance from PMC5330840.

This assay addresses Entamoeba histolytica ADP-forming acetyl-CoA synthetase, wild type (Entamoeba histolytica). The experiment in a line: SEC. On the technique in general: Size exclusion chromatography separates by hydrodynamic size, large species first.

On to “Entamoeba histolytica ADP-forming acetyl-CoA synthetase, wild type (enzyme)”, for which the stoichiometry N was 2.
